The numbers were not newly measured in publication PMC12704549, which cites them from elsewhere.

The Kd is the constant that tells how readily two partners part at equilibrium.

The target of this data set is pro-IL-18 (Homo sapiens) (UniProt Q14116).
Sequence of pro-IL-18 (Homo sapiens) (Q14116 37-193): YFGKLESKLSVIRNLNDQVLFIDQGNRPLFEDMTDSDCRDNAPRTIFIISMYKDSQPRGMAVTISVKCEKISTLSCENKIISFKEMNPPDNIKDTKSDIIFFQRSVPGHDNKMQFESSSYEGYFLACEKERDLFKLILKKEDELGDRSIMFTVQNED

Sequence of caspase-4 (P49662 290-377): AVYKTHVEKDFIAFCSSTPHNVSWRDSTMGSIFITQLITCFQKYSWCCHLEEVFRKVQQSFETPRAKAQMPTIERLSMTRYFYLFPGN

As to caspase-4 (from UniProt P49662), the Kd is 290 nM.
